The results in this text go back to FireProtDB (doi:10.1021/bi027116n).

Values joined by “and” are separate entries in the source; they are usually repeats but may differ in a detail not shown here. Identical values can stand only once.

The conditions of this data set: Aquifex aeolicus (strain VF5), reversible: no, whole UniProt chain shown; for denaturant midpoint (higher = more stable): 20 °C, GdnHCl.

B1: 2Fe-2S ferredoxin-5 wild type, P59799 (protein)
chain: MPKVIVANINAEFEGIENETIMQILYRNGIEIDSACGGHGQCTSCKVLIISGSENLYPAEFEEKDTLEENGMDPETERLSCQAKLNGKGDVVIYLP
In the case of B1, the “denaturant midpoint (higher = more stable)” value (“denaturant midpoint” for short) is 3.2 M (pH 4, Absorbance, citric acid-NaH2PO4); 3.2 M (pH 4, Emission, citric acid-NaH2PO4); 6.7 M (pH 5, Absorbance, Unknown); 6.7 M (pH 5, CD, Unknown); 6.9 M (pH 5, Emission, Unknown); 7.5 M and 7.1 M (pH 10, Absorbance, Glycine-OH). Moreover, the “denaturant midpoint” value (pH 10, CD, Glycine-OH) was 7 M; the “denaturant midpoint” value (pH 10, CD, glycine-OH) was 6.6 M and 6.3 M and 6.1 M; the “denaturant midpoint” value (pH 10, Emission, Glycine-OH) amounted to 7 M; the “denaturant midpoint” value (pH 10, Emission, glycine-OH) is 6.5 M and 6.1 M; the “denaturant midpoint” value (pH 11, CD, NaHCO3-NaOH) was 6.2 M; the “denaturant midpoint” value (pH 11, Emission, NaHCO3-NaOH) came out at 6.2 M. Further, the Tm (pH 10, Thermal, Absorbance, Glycine-OH) turned out to be 116 °C.
